Sequences and labels used below:
T1: Mcl-1, Q07820
T1 chain: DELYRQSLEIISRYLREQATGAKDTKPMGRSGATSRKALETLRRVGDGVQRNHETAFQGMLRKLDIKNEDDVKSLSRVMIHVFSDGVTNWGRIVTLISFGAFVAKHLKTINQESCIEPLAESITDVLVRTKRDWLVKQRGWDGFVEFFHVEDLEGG

In the experiment the target is T1, Mcl-1, Q07820. Kind of experiment: peptide SPOT array, c-Myc-tagged receptor at 1 uM or 100 nM, anti-c-Myc-Cy3.
In turn, GETDANVAKFLNRLSDYLFTLARYAA [MMAB] showed an SPOT signal as a fraction of Bim BH3's signal on the same receptor and array of 0.02. Under ERFEGFCVDMLRELAELLRFRYRLRL [GRIK5] stands 0.11.

As to ITMVPQASEILAKMSELVHRRLRHGS [ZFPM2], the SPOT signal as a fraction of Bim BH3's signal on the same receptor and array is 0.1. LFIPLNISCLLKEGSEHLFDSFEPET [DEPDC5] registered an SPOT signal as a fraction of Bim BH3's signal on the same receptor and array of 0.02. KVRAHHYSVALRRLGQLLGSRPRPPP [FASTK]: the SPOT signal as a fraction of Bim BH3's signal on the same receptor and array amounted to 0.14. Take SNKIRNLSTTLQTIATKLCRELYSKE [CLEC12A]: the SPOT signal as a fraction of Bim BH3's signal on the same receptor and array stood at 0.17. The figure for CKDPKACTILLRGASKEILSEVERNL [CCT3] is 0.02. As for QDKMLVAVKALKEASESARQDFQREA [NTRK1], the SPOT signal as a fraction of Bim BH3's signal on the same receptor and array stood at 0.02. Under EVQDRLAHKGISQAARYVYQRLINDG [DAGLB] stands 0.16; under EITQHNVTELLRDVAAWGRARATGGD [C19orf51], 0.02; under PLSNDTIARRIQELANDMEDQLIEQI [SCAND3], 0.02. As to SGEFARICRDLSHILDAVVISCAKDG [PCNA], the SPOT signal as a fraction of Bim BH3's signal on the same receptor and array is 0.01.

For the molecule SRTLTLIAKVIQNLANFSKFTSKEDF [SYNGAP1], the SPOT signal as a fraction of Bim BH3's signal on the same receptor and array stood at 0.08. With IIKDQLNVSNIDQVARHLRGLLEEEC [CCDC24], the SPOT signal as a fraction of Bim BH3's signal on the same receptor and array turned out to be 0.02. Molecule NATHEEVVHLDRNAGDEVTITVEYLR [SNTG2] returned an SPOT signal as a fraction of Bim BH3's signal on the same receptor and array of 0.01.

VPSGTSLARNLKRVAETWMDEFAEYI [GALNTL6]: the SPOT signal as a fraction of Bim BH3's signal on the same receptor and array was 0.02. Under RFNLMQVGRLLQQLAMTGSEEGDPRT [GAPVD1] stands 0.04; under VKGAEITGKAIQKGASKLRERIQPEE [SPG20], 0.02. The figure for EGEEFTVTCTIKDVSSSVYSTWKREN [KIT] is 0.02; for FEVDDGTSVLLKKNSQHFLPRWKCEQ [GINS1] it is 0.05; for AAVVLSVATFLYQVAERVRYYREFHH [ACCN3] it is 0.03. For the molecule LLLPKGVVLKLKPVATRFPRKAWRQK [GON4L], the SPOT signal as a fraction of Bim BH3's signal on the same receptor and array came out at 0.32. The molecule MAADTQVSETLKRFAGKVTTASVKER [GCN1L1] showed an SPOT signal as a fraction of Bim BH3's signal on the same receptor and array of 0.11.

Turning to YKSLLLLAYLIRNGSERVVTSAREHI [CLINT1], the SPOT signal as a fraction of Bim BH3's signal on the same receptor and array was determined as 0.05. Under KTVVDLVSADLEEVAQKCGLSYKAEA [RAD51L3] stands 0.01; under LEGFRKNEEVLKRCAQEYLSRVKKEE [TACC2], 0.04. The figure for PSIQLHGAKLLEELGTGLIQQYKPDS [HEATR6] is 0.01; for GKRMKQFPEVIKYLSRNVVHSVRREH [BAZ2A] it is 0.29; for SKVRERYVQMLDQIARQMIDFYKDLV [C1orf125] it is 0.03. Under LLPRETVAGALRRLGARGGGKGRKGP [CD2BP2] stands 0.13; under EEITSDAAYVIQDLATLFEELQREKK [XXXX], 0.02; under DPLNDNIATLLHQSSDKFVSELWKDV [MYH9], 0.02. TGVNGEISYSLFQASEEIGKTFKINP [PCDHB13]: the SPOT signal as a fraction of Bim BH3's signal on the same receptor and array came to 0.01. FVQVASAASALKDVSYKIYDDENQKI [NXF5] gave an SPOT signal as a fraction of Bim BH3's signal on the same receptor and array of 0.02. Under EELLRSSADFLQRLSAILRTSLRFRL [NOTCH3] stands 0.11. Under KKDKARVSELLQGLSFSGDSDVEKDN [PGBD1] stands 0.01. Under EQAARVAIEHLDKISDSVLVDIKDTE [CCT5] stands 0.01. Turning to TRELQELARKDQELADASENLLTENT [TXNDC11], the SPOT signal as a fraction of Bim BH3's signal on the same receptor and array is 0.01.

The molecule RNIASQTVARLKDVARRISSCLDFEQ [HERC2] had an SPOT signal as a fraction of Bim BH3's signal on the same receptor and array of 0.06. The figure for KEYRNQFPEILRRAAAHLECIFRFEL [MAGEE1] is 0.02; for FVQDASAASALKDVSYKIYDDENQKI [NXF2] it is 0.01; for EQWAREIGAQLRRMADDLNAQYERRR [BBC3] it is 0.76.

Take PKPDSDVTQTINTVAYHARPDSDQRF [BARD1]: the SPOT signal as a fraction of Bim BH3's signal on the same receptor and array was determined as 0.01. QDKILVAVKTLKDASDNARKDFHREA [NTRK2] gave an SPOT signal as a fraction of Bim BH3's signal on the same receptor and array of 0.02. The figure for SRTLTLIAKVIQNLANFAKFGNKEEY [RASAL2] is 0.08. The figure for HNATLILSEGLKRAGHQLQHDLFFDT [GLDC] is 0.02; for AIVADRMVEILFHYADRALKKCPDQG [VPS8] it is 0.02; for CVQSTKPSLMIQKAAIQALRKMEPKD [APOB] it is 0.09. The molecule AYKTVEVVESIEKISTESIQTYEETA [BFSP1] had an SPOT signal as a fraction of Bim BH3's signal on the same receptor and array of 0.01.

As for VPAGVSLARNLKRVAEVWMDEYAEYI [GALNT10], the SPOT signal as a fraction of Bim BH3's signal on the same receptor and array was determined as 0.02.

These data come from publication PMC4072508, “Genome-Wide Prediction and Validation of Peptides That Bind Human Prosurvival Bcl-2 Proteins” (PLoS Computational Biology, 2014).
